The numbers were not newly measured in publication PMC9776232, which cites them from elsewhere.

This series has as its target Amyloid beta (Homo sapiens) (UniProt P05067).

Chain of Amyloid beta (Homo sapiens) (P05067 672-711): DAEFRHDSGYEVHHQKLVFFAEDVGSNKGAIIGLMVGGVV
Chain of L-PGDS (P41222 23-190): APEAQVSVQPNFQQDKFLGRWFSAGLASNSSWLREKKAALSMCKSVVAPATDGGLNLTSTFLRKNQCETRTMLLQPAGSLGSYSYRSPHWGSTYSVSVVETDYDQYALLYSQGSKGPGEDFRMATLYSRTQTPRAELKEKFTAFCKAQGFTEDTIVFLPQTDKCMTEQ

For the substance L-PGDS (from UniProt P41222), the Kd is 0.034 µM.

Usually Kd stands for the equilibrium constant for the complex coming apart.
